Protein production data for 16 sequences are collected here from a protein production outcome set (Wang et al. 2014).

A short description of the data set: label from the status in PepcDB records.
With “MSVCPTNFDEKVECPFVDRKEFTEAFEKAFNNIDQQNYSILVYYGVAGIGKTSLRKELPALLEKHNESDLHTRVIWTSIDFATEQYKQPYKFLEVLSSQLRQKYNVKFNSFDIALATYWKKINPHNPLVKENYSEGSIVHDILDVCDEFVPANLIPNVYNLTKNLPKHYQKWVLKREEDISGLQNLEPTEIYKRLPVYLAHDLADHLQNTSELAVIFIDTYEALWEKERDKGSFNSRDEWLRKLIEKIQKSCLWVICGKESLRWEEVDEDWKNYLDQRKIGKLPEKDALDLLKQCGITEEDIQNVLIESSEGVPYYLELSIDIYRKIKKKKQPTPENFAKVPEGIFCRFVKYLDREEKETLKVLSVPRYWNRELFKILVEKFNTGYPATSFSELHSFSFMDVDDKGKCSMHQLMRKSLKDYQDQDLKKEVHNFMLDFYSNQLKDIDIKEITPEHEIALTEAFYHAKEALEAEDLLKWFISVSDPFNRAAFWQLITPMYEEMLQILEAKHGPEHKDIVTTLNILDVLYYKMGEYKKALQFSERALAIGETILGVQHPDVATSLDNLAGLYESMGNYKQALQLSERALEIYEKVLGPQHRDVAITLDNLAGLYESMGEYEKALIFYQRTIEIKEKVLGPQHSNFATSLDNLAVLYRQMGEYEKALQLSQRALEIYEKVLGPQHPDIATTLNNIALLYDSMGDYQKTLPLYQRALEINEKVFGPQYLGIATTLNNLAGFYRRVGDYEKALSLSQRSLEIDEKVLGSQHPDVARTLNSLALIYENIGDYEKALAFYQRSLDIREKVLGPQHPDVGRTLNNLARLYEIMGDHEKALTLYQRTIEIKEKALGPQHPDVATILNNLAGLHYRIGEYKKALPLYQRALDIVEKKLGQNQPNSVVIKNNYNRLLSKMSENEKK”, the protein production result was “failed”. For the sequence “MAEANTPHIAIMPSPGMGHLIPFVELAKRLVQHDCFTVTMIISGETSPSKAQRSVLNSLPSSIASVFLPPADLSDVPSTARIETRAMLTMTRSNPALRELFGSLSTKKSLPAVLVVDMFGADAFDVAVDFHVSPYIFYASNANVLSFFLHLPKLDKTVSCEFRYLTEPLKIPGCVPITGKDFLDTVQDRNDDAYKLLLHNTKRYKEAKGILVNSFVDLESNAIKALQEPAPDKPTVYPIGPLVNTSSSNVNLEDKFGCLSWLDNQPFGSVLYISFGSGGTLTCEQFNELAIGLAESGKRFIWVIRSPSEIVSSSYFNPHSETDPFSFLPIGFLDRTKEKGLVVPSWAPQVQILAHPSTCGFLTHCGWNSTLESIVNGVPLIAWPLFAEQKMNTLLLVEDVGAALRIHAGEDGIVRREEVVRVVKALMEGEEGKAIGNKVKELKEGVVRVLGDDGLSSKSFGEVLLKWKTHQRDINQETSH”, the protein production entry is reported as “failed”. With “MGRAMGDSFTFIFNPAADKGRAADKTALIERSLAHFEVASLETTRFAGHAAEIARAAAGEGSTLIACGGDGTLNEVVNAVAGQPVKVGVLPVGSANDFLKTFNPSAKEHEVRIRGFAGATSRKVDLGKV”, the protein production result is reported as “failed”. With “MALQLGPHELQHVFSFLEARDLLRAAQVNKVWNEVSMTNELWRQLCLRRWAPCKALPVVLGTQTWRQYYFCRSELEFRVKSGRPQDFICKAISGHTGTIDQLAYVSPHEYRFDEKARSVVCTVSSDCTVRAWDLQEGTEMWSSPVQPAPLVNLVAYPQLQLVVTVDTQGLIRGWNTDTGSEWAFFSLPTSCSSMEACDHPEGSFLLVACAEGTLYTMTVPQLQVVFRVATFPHTPVSLMCSPDKQWVLVSAQDSDLGPKVFYTQPLLHPSEDRLPASATLPIRLSSRACWAPDEAARLMVTHRDDSGVHLVITTFELKANKSRDRVSILAQQLASFPLPDTMTPHLMQGHGSQVILLTSGSELVLFNIHGLQLMAFQDHQKPITSVWVDPDRVITAALDLSLCVYVWNKENTSPILKSCYHLLGGSHRWASGFTHVKSDSRSIAGVEARSTGTSILRSYCYKVQLG”, the protein production result is recorded as “failed”.

As for “MKILLKSLVISASLCSPFVLANSEAHSDYLKGTAYLNQDNYKEAITWLTSAANNGSIEAQNKIGTIYAKGIGTEANTQLATQYFLKAAANQSSMAYYNLGKIYESEEKYSTSIDWYNKAIEENNSNAMNNLADLYLHGKGLVQNTHQAELLYIQAAELGNATAMRNLGFLYTNNKEVKQDMSKAYFWFNLAAEKDFPDADKYRDYTGKKLSKSKRIKVQNEALEWLEQHNS”, the protein production entry is “failed”. For the sequence “TAALSGAANLGAPLSNDFCTISLSDKWRGWDEIEEKLRAAAISGFVVVLYNCWRDYERAVDVLREERADDVPAAIVNDSGRGEAGRNLDDETETITTLGELPEHDDKVGGMGSSIVVGTHETEV”, the protein production result is given as “failed”. To “MSEDRTGHQGISGPATRAIHAGYRPDPATGAVNVPIYASSTFAQDGVGGLRGGFEYARTGNPTRAALEASLAAVEEGAFARAFSSGMAATDCALRAMLRPGDHVVIPDDAYGGTFRLIDKVFTRWDVQYTPVRLADLDAVGAAITPRTRLIWVETPTNPLLSIADITAIAELGTDRSAKVLVDNTFASPALQQPLRLGADVVLHSTTKYIGGHSDVVGGALVTNDEELDEEFAFLQNGAGAVPGPFDAYLTMRGLKTLVLRMQRHSENACAVAEFLADHPSVSSVLYPGLPSHPGHEIAARQMRGFGGMVSVRMRAGRRAAQDLCAKTRVFILAESLGGVESLIEHPSAMTHASTAGSQLEVPDDLVRLSVGIEDIADLLGDLEQALG” belongs “not failed”; to “MSAKSKQYFNIFVFIISLIFFDQLSKYLVAKYVKLGSIYFSFFDDFFRIIHVRNTGILFSMGSNIHYSLKKIFFLAMPIFILIFVFYLSLKERNCIARISLLLIFSGGVGNVIDRLFRPSGVVDFLDLKFYGIFGLDRWPTFNFADSYVVIGMILFLVYDFFIKRKVLNK”, “failed”. To “MISGDTLSAKKPKSVPQEEDQDPPSQSIALLDNHTDSSGSDSSTRSISSCFIFTSLLLVTCIALSAASAFAFLFFSSQKPVLSLNQISKSPAFDRSVARPLKKLDKPVVLLISSDGFRFGYQFKTKLPSIHRLIANGTEAETGLIPVFPTLTFPNHYSIVTGLYPAYHGIINNHFVDPETGNVFTMASHEPEWWLGEPLWETVVNQGLKAATYFWPGSEVHKGSWNCPQGLCQNYNGSVPFDDRVDTILSYFDLPSNEIPSFMTLYFEDPDHQGHQVGPDDPQITEAVVNIDRLIGRLIDGLEKRGIFEDVTMIMVGDHGMVGTCDKKLVVLDDLAPWIKIPSSWVQYYTPLLAIQPPSGHDAADIVAKINEGLSSGKVENGKYLKVYLKEDLPSRLHYVDSDRIPPIIGLVDEGFKVEQKKSKAKECGGAHGYDNAFFSMRTIFIGHGPMFSKGRKVPSFENVQIYNVISSILGLKAAPNNGSDEFSSSILLPRV” belongs “failed”; to “TGQDAYGQVTEMQYVVYAFSKVETIFSDMYAFAALKTDGSVVTWGYSDYGGDSSSVAGQLTSGVKVIDSTSSAFAAIKEDGSVVTWGDSPYGGDSSSVAGKLTSGVKVIYSNSSAFAAVKQDGSVVTWGSYGGDSSSVAGQLTSGVKVIYSTDSEFGAFAAVKEDGSVVTWGNSPYGGDSSSVAGQLTSGVKVIYSTNNAFAAVKEDGSVVTWGDSGAGGDSSSVAGQLT”, “failed”; to “MTMREYMLGNVAIARGLLEGGVQVIAGYPGTPSSEIIDTLASREDRDYHIEWSVNEKVAMEVAVGAAWTGVRSVVTMKHVGLNVAADPFMTLAYAGTKGGLIAIVADDPSCHSSQNEQDTRRYAQFALVPCFDPSTPQEAKDMLPYAFEFSEKFEIPVIFRPTTRISHGKSDIELGEIPAEKAVPHFEKLLDRWVMLPKNARPRHTHILSIQQAMEDELAESPWNSLEIKPGAKMGVIGSGIASVYAKEALQELGLEASFLKIGTYPVPKKLILELLSTVDTVLIFEELEPVVEEQVRILAQEAGLEVSVLGKEGGFVSREGELDVSAFLEALRKAFDLDIEPDSGKVPLELAPRPPSLCAGCSHRATFYSMKKVFGKDAIYPSDIGCYTLGIQSGTVETTLCMGSSISIASGLYHAGEKRPICCSIGDSTFFHTGMNSLLNAVFNKANITVTILDNRITAMTGHQPNPGVGFTVTGEPTVEVSLAELCKAMGAGFVTVVDPYNLEETQEAFKAAKEFEGTAVVIAKQPCVISGKRAGIKRVPYIVDPEKCEGCKQCVKFGCPAIEFDEENKCAVITSLCSGCGVCAQICKFDAIREVKR”, “failed”. As to “QVYKAKFGTPNRGWVIIVHGLGEHSGRYSKLVSMLVNEGYAVYTFDWPGHGKSPGKRGHTSVEEAMEIIDFIIEEINDKPFLFGHSLGGLTVIRYAETRPEKIRGVIASSPALAKSPKTPSFMVALAKILGVLLPSLTLSNGIDPNLLSRNPDAVKRYIEDPLVHDRISAKLGRSIFKNMDLAHREAHKIKVPVLLLVGTGDVITPPEGARKLYGEIKVEDKEIVEFEGAYHEIFEDPEWGEEFHKKIVEWIKKH”, the protein production result was “not failed”. As for “MKNDRKARLILSIFRYGKNHMEKETFYHKVNYGIYKILNAVFVIGFFGTELQASQSISNNIILFHPYGIVVSGEATLGDEVVIRQQVTIGNKGTGEGADDCPIIGDRVDIGAGAKIIGGITIGENSKIGANAVVTKSFPANSILVGVPARNIASKAMNGLEHHHHHH”, the protein production result is listed as “not failed”. For the sequence “MSVKAYLELIRVHNVVGSAVSAFMGYVIATTWKFTPLFFLPLLVVSLIAAGGYVINDVYDIEVDKINKPERPLPSGRIAVNIARRFSIVLFAVGLIISIPLGLIPFGFALITIVLLYEYARSLKKLGLVGNFIVALTSALSAYYGGLASGSLLGNFIIPTIYIFFFTLSREFVKGIEDIEGDKRNGVNTLAVKLGEKSTWIIAKIILGILIFTSPLPYFLGFNVIYLIGILALDVLLVYILILHNTIESATKARSLMKIYAIGTLIVFTLGSLRI”, the protein production entry is given as “failed”. To “MDPIESVEYNGFETSNGNVDHGWKKVVYPKRHRKQKQADQATANGGKTVASNGTVANGGDNVFRSLEEQAEDRRRRILAAKMTAIDSDDDGVVRSKHRSNGYGDDGYDFDGSDDEIATLKVEEVKKPKPKKEKKPKVSLPEAASKIDPLNLEAFLVEASESYASQPEIQLMRFADYFGRALSGVSSVQFPWVKMFKESPLSKLIEVPLAHIPEPVYKTSVDWINHRPIEALGAFVLWAFDCILTDLAAQQGGAKGGKKGGQQTTSKSQVAIFVALAMVLRRKPDALTNVLPTLRENPKYQGQDKLPVTVWMMAQASQGDIAVGLYSWAHNLLPVVGNKNCNPQSRDLILQLVEKILTNPKARTILVNGAVRKGERLIPPPSFEILLRLTFPASSARVKATERFEAIYPLLKEVALAGAPGSKAMKQVTQQIFTFALKLAGEGNPVLAKEATAIAIWSVTQNFDCCKHWDNLYKENLEASVAVLKKLVEEWKEHSVKLSSSPNDALTLNRTMKSFRLKNEEVITEGGANASLYKEADKSCKTISGRLSRGSGCLKGTAITLVFLAAAGAAAAAVLSSNPEVTNELKNLVDSLELHEYINKYTEVISTALKK” belongs “failed”.

Turning to “MSLIASIGELLIDLISVEEGDLKDVRLFEKHPGGAPANVAVGVSRLGVKSSLISKVGNDPFGEYLIEELSKENVDTRGIVKDEKKHTGIVFVQLKGASPSFLLYDDVAYFNMTLNDINWDIVEEAKIVNFGSVILARNPSRETVMKVIKKIKGSSLIAFDVNLRLDLWRGQEEEMIKVLEESIKLADIVKASEEEVLYLENQGVEVKGSMLTAITLGPKGFRLIKNETVVDVPSYNVNPLDTTGAGDAFMAALLVGILKLKGLDLLKLGKFANLVAALSTQKRGAWSTPRKDELLKYKEAREVLAEGHHHHHH”, the protein production result is reported as “not failed”.
